Laboratory results as given in patent US20230151373A1, “CHIMERIC POLYPEPTIDE FOR REGULATING IMMUNE CELLS” (STICHTING HET NEDERLANDS KANKER INSTITUUT-ANTONI VAN …, priority 2019, published 2023).

B1: Zap70 2×SH2: the Zap70 SH2 domains without inhibitory tail; human Zap70 (P43403, 1-264 aa) (protein, UniProt P43403 1-264, looked up, fragment)
chain: MPDPAAHLPFFYGSISRAEAEEHLKLAGMADGLFLLRQCLRSLGGYVLSLVHDVRFHHFPIERQLNGTYAIAGGKAHCGPAELCEFYSRDPDGLPCNLRKPCNRPSGLEPQPGVFDCLRDAMVRDYVRQTWKLEGEALEQAIISQAPQVEKLIATTAHERMPWYHSSLTREEAERKLYSGAQTDGKFLLRPRKEQGTYALSLIYGKTVYHYLISQDKAGKYCIPEGTKFDTLWQLVEYLKLKADGLIYCLKEACPNSSASNASG
B2: Zap70-PD1: human Zap70 fragment (1-264 aa), a GGS linker, the human PD1 intracellular domain (192-288 aa) (protein)
chain: MPDPAAHLPFFYGSISRAEAEEHLKLAGMADGLFLLRQCLRSLGGYVLSLVHDVRFHHFPIERQLNGTYAIAGGKAHCGPAELCEFYSRDPDGLPCNLRKPCNRPSGLEPQPGVFDCLRDAMVRDYVRQTWKLEGEALEQAIISQAPQVEKLIATTAHERMPWYHSSLTREEAERKLYSGAQTDGKFLLRPRKEQGTYALSLIYGKTVYHYLISQDKAGKYCIPEGTKFDTLWQLVEYLKLKADGLIYCLKEACPNSSASNASGGGSCSRAARGTIGARRTGQPLKEDPSAVPVFSVDYGELDFQWREKTPEPPVPCVPEQTEYATIVFPSGMGTSSPARRGSADGPRSAQPLRPEDGHCSWPL

Test system: primary human T cells modified with the HLA class I restricted CDK4 TCR
Assay: Cytokine release and degranulation assay, CDK4 TCR T cells co-cultured with CDK4 peptide loaded T2 cells
Format: cell-based
Experimental: For use as T cell targets, T2 and CBH 5477 cells were loaded with the indicated concentrations of HLA-A*02:01 restricted mutant CDK4 peptide (ALDPHSGHFV), HLA A*02:01 restricted NY-ESO-1 peptide (SLLMWITQA), or HLA-DR1 restricted CMV peptide (KYQEFFWDANDIYRI) in IMDM for 1 hour at 37° C. Cells were then washed once and used in co-culture experiments.
T cells and NK cells were pretreated with the indicated concentrations of asunaprevir (MedChemExpress, #HY-14434), grazoprevir (MedChemExpress, #HY-15298), dTAG-13 (Tocris, #6605) or DMSO control in T cell media (RPMI/10% human serum/penicillin-streptomycin, 100 IU/ml IL2 and 5 ng/ml IL15) or NK cell media (RPMI/8% FCS/penicillin-streptomycin, 500 IU/ml IL2), respectively, for 24 hours before co-culture experiments. 100,000 T cells or NK cells and 100,000 of indicated tumor cells were mixed in T cell or NK cell media supplemented with golgi-plug (1:1000 dilution, BD, #51-2301KZ) and anti-LAMP1-APC (1:100 dilution, Biolegend, #328620) in the presence of indicated drugs or DMSO control in 96-well plates and incubated for 5 hours at 37° C.
After incubation, cells were washed once with PBS and stained with IR dye (Invitrogen, #L34976) at 1:400 dilution for 5 minutes at 4° C. Subsequently, cells were washed once with FACS buffer (PBS plus 0.5% BSA) and stained with anti-CD8-PerCP Cy5.5 (1:20 dilution, BD, #341050), anti-CD4 BV711 (1:50 dilution, Biolegend, #317440), anti-murine constant TCR-PE (in experiments with transduced TCRs, 1:200 dilution, BD, #553172) or cetuximab-PE (in experiments with transduced CAR construct containing truncated human EGFR reporter, 1:200 dilution, R&D Systems, #FAB9577P) for 20 minutes at 4° C. Cells were then washed once with FACS buffer and fixed with BD fixation and permeabilization solution (#51-2090KZ) for 20 minutes at 4° C.
Following permeabilization, cells were washed twice with BD perm/wash buffer (#51-2091KZ) and stained with anti-IFNγ-BV421 (1:100 dilution, BD, #564791), anti-IL-2-PE-Cy7 (1:100 dilution, BD, #560707) and anti-TNFα-BV650 (1:100 dilution, Biolegend, #502938) diluted in perm/wash buffer for 20 min at 4° C. Cells were then washed twice, resuspended in 100 μl FACS buffer and analyzed directly on a Fortessa Special Order analyzer. Data were analyzed using FlowJo and Prism 7 software.

[1] = T cells co-cultured with 10 nM peptide loaded T2 tumor cells, relative to vector control

| Molecule | effect of construct expression on T cell cytokine production and degranulation (no drug, T2 cells loaded with CDK4 neoantigen) | reduction in percentage responding cells, IFNγ [1] | reduction in percentage responding cells, IL-2 [1] | reduction in percentage responding cells, TNFα [1] | reduction in percentage responding cells, cell surface LAMP1 [1] |
| --- | --- | --- | --- | --- | --- |
| B1 | modest inhibition of T cell functions |  |  |  |  |
| B2 |  | 104 fold | 110 fold | 81 fold | 40 fold |
